Source: patent US20080020399A1

Experiments:
[1] = target: rat liver insulin receptor purified by wheat germ lectin affinity chromatography (rat) (UniProt P15127); experiment: cell-based or functional assay
[2] = test system: biotinylated hIRS-1-p30 (domain D516-P777 of human IRS-1)
biotinylated hIRS-1-p30 (domain D516-P777 of human IRS-1), sequence (chain, as listed by the source): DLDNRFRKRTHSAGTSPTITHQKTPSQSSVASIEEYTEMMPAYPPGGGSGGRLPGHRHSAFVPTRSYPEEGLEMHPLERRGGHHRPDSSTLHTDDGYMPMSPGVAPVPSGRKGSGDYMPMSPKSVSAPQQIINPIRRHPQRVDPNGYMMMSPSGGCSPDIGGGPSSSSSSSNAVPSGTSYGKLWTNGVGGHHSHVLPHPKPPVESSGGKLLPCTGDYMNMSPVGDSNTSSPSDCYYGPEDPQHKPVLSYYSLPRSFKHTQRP

rat liver insulin receptor purified by wheat germ lectin affinity chromatography (rat), sequence (P15127 27-1383 limits assumed, form in doubt): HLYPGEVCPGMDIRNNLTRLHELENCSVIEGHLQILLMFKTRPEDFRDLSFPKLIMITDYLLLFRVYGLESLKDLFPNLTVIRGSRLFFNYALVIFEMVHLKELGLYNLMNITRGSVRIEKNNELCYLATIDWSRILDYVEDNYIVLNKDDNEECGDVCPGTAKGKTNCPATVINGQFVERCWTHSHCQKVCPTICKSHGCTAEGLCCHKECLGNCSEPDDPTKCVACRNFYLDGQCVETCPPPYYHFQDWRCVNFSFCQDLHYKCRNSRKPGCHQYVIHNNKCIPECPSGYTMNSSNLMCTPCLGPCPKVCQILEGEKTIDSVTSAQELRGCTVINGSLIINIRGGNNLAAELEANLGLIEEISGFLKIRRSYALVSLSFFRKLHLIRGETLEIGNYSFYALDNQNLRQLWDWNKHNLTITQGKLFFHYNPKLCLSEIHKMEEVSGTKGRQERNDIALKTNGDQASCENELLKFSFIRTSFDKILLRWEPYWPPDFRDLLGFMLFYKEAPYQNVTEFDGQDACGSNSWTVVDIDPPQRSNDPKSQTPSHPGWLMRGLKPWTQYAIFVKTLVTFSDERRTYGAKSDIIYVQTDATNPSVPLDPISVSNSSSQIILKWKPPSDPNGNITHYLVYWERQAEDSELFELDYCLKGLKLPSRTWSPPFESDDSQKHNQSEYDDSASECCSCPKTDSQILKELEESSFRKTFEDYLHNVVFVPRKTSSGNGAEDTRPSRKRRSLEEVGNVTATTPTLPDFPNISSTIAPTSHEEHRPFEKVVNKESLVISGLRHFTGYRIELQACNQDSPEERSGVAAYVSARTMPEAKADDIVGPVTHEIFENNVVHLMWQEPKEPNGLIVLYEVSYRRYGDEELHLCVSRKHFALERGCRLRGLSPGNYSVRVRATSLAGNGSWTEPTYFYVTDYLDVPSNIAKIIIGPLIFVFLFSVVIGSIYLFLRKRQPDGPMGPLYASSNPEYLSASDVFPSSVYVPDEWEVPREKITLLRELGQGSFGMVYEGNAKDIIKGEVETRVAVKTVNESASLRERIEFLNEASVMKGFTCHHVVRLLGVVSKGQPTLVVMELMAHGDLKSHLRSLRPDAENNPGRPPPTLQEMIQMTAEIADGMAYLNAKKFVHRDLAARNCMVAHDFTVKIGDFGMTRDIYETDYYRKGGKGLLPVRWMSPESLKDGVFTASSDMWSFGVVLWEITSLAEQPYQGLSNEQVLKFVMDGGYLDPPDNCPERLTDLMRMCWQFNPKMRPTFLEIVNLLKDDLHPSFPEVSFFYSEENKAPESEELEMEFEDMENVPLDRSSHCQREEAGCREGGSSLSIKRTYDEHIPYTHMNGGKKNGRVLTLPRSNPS

Substance | ALPHAScreen readout of tyrosine phosphorylation of 85 nM biotinylated IRS fragment by the insulin-stimulated receptor [1] [nM] | phosphorylation of the biotinylated IRS-1 fragment (ALPHAScreen, p-Ser antibody) [2]
human insulin (from UniProt P01308 25-54; P01308 90-110) (ligand) | 10 | –
protein kinase C (serine kinase PKCδ) | – | can be phosphorylated in the biotinylated state by the serine kinase PKCδ
